Target: T1, recombinant biotinylated human BCMA (human, UniProt Q02223 1-54, biotinylated (site not stated); detected with streptavidin-APC)
T1 construct: Staining reagent; also called recombinant biotinylated BCMA/streptavidin-APC conjugate
T1 sequence (looked up): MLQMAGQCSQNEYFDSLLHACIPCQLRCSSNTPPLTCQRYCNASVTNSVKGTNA
Test: flow cytometry; edited T cells carrying the CAR stained with recombinant biotinylated human BCMA and streptavidin-APC
Description: Flowcytometry was used to verify the editing for TRAC, β2M and the insertion and expression of anti-BCMA CAR. Briefly, about one week post electroporation, cells were stained with anti-human TCR, anti-human β2M and recombinant biotinylated human BCMA/streptavidin-APC to assess the levels of editing for TRAC and β2M, and insertion of the nucleotide sequence encoding anti-BCMA CAR.
TRAC−/β2M−, TRAC−/β2M−/Reg-1−, TRAC−/β2M−/TGFBRII− and TRAC−/β2M−/Reg-1−/TGFBRII− anti-BCMA CAR+ T-cells show consistent rates of TCR and β2M disruptions at >90% and >60% rates, respectively as determined by flow cytometry (FIGS. 23A and 23B). Anti-BCMA CAR expression was measured flow cytometrically by determining the percentage of cells that bound recombinant biotinylated BCMA/streptavidin-APC conjugate. All the conditions including TRAC−/β2M−, TRAC−/β2M−/Reg-1−, TRAC−/β2M−/TGFBRII− and TRAC−/β2M−/Reg-1−/TGFBRII− anti-BCMA CAR+ T-cells show consistent rates of CAR insertion (>70%), while the unedited RNP− T-cells have no detectable staining for anti-BCMA CAR (FIG. 23C).

- binding result: binds
B1: anti-BCMA CAR (BCMA CAR amino acid sequence) (other)
chain: QVQLVQSGAELKKPGASVKVSCKASGNTLTNYVIHWVRQAPGQRLEWMGYILPYNDLTKYSQKFQGRVTITRDKSASTAYMELSSLRSEDTAVYYCTRWDWDGFFDPWGQGTTVTVSSGGGGSGGGGSGGGGSEIVMTQSPATLSVSPGERASISCRASQSLVHSNGNTHLHWYQQRPGQAPRLLIYSVSNRFSEVPARFSGSGSGTDFTLTISSVESEDFAVYYCSQTSHIPYTFGGGTKLEIKSAAAFVPVFLPAKPTTTPAPRPPTPAPTIASQPLSLRPEACRPAAGGAVHTRGLDFACDIYIWAPLAGTCGVLLLSLVITLYCNHRNRKRGRKKLLYIFKQPFMRPVQTTQEEDGCSCRFPEEEEGGCELRVKFSRSADAPAYQQGQNQLYNELNLGRREEYDVLDKRRGRDPEMGGKPRRKNPQEGLYNELQKDKMAEAYSEIGMKGERRRGKGHDGLYQGLSTATKDTYDALHMQALPPR
notes: also called anti-BCMA chimeric antigen receptor

— patent publication US20220090012A1 (CRISPR THERAPEUTICS, published 2022)
